Ends that are not written are not given here. * marks the point of attachment. linolenoyl = CH3CH2CH=CHCH2CH=CH(CH2)CH=CH(CH2)7CO, CC/C=C\C/C=C\C/C=C\CCCCCCCC(=O)*; Palmitoyl = CCCCCCCCCCCCCCCC(=O)*
What was measured:
[1] = Encapsulation rate of liposome (RP-HPLC); assay type: physicochemical; conditions: L9(3^4) orthogonal test of lipid components and liposome forming conditions; 6 mmol/L vitamin E
Description: Liposome was prepared by a double emulsion method. The lipid components were dissolved in ethyl ether solution, mixed with the concentrate of the present compound to form an emulsion (W/O), then poured into phosphate buffer (PB) or water under a controlled temperature and stirred to form a further emulsion (W/O/W), and liposome was gradually formed as ethyl ether gradually volatilized. The product in free form and aggregate and precipitate in the liquid was removed by concentration in ultrafiltration apparatus and dialysis (the dialysis must be 200 folds or higher) and by filtration via a 10 μm microporous filter. Aliquots were removed for reversed phase high performance liquid chromatography (RP-HPLC) to determine the encapsulation amount, and the encapsulation rate was calculated by comparing to the incorporated amount. L9(3^4) orthogonal table was used in the experimental design.
Based on the formulation and conditions determined by said orthogonal test, the effects of the concentration of the immunogen solution on the encapsulation rate of the liposome were compared. […]

[2] = Size shrinkage of liposome after lyophilization; assay type: physicochemical; conditions: 5% mannitol/10 mmol/L phosphate buffer
Excerpt: In the Table 16, all of the formulations 1-11 contained a buffer of 5% mannitol/10 mmol/L phosphate(KH2PO4/Na2HPO4 was 60/40)
When the addition amount of the concentrated liposome solution was 25-50% (v/v) of the semifinished product liquor for subpackage, addition of 1% human serum albumin as excipient will result in better lyophilization effects. Thus, when the volume of the concentrated liposome solution was equal to the volume of the emulsion (W/O), the volume of the concentrated liposome solution was determined as 37.5% (v/v) of the volume of the product liquor for subpackage, i.e., an average level of the amount of the concentrated liposome solution. In this case, the concentrations of the adjuvants in the product liquor for subpackage should meet the requirements as set forth in Table 16-4. The volume of subpackage should be 1 ml and meet the requirements for the formulation of lyophilized liposome injection. In practice, the volume of the concentrated liposome solution usually is greater than the volume of emulsion (W/O), so the volume of the product liquor for subpackage may be increased. Thus, the actual subpackage volume is calculated according to the following formula.

HBV-DNA, HBeAg and HBsAg = assay: FIG. 5: virus inhibition test with PBMC of HBV carrier and hepatitis patients; assay type: cell-based, hepatitis B virus; conditions: supernatant, with increase of co-culture time
Excerpt: FIG. 5 indicated the antiviral effects of the immunogen of the present invention. Peripheral blood mononuclear lymphocytes were separately isolated from fresh peripheral bloods of a HLA-A2+HBV carrier, a patient suffering from acute hepatitis, and a patient suffering from chronic hepatitis, and were subjected to virus inhibition tests to measure the copy numbers of HBV-DNA (A) and secretion levels of HBeAg and HBsAg in the supernatant (B, C).

HBV-DNA transgenic mice [3] = assay: HBV transgenic mice: IFN-γ secreting cells, ELI-SPOT; assay type: in vivo; conditions: 30th day after end of immunization
Description: (§1) The levels of cytokines such as IFN-γ, IL-4, etc. in supernatant were measured by the ELISA method, and the activity of the test drug (CH3(CH2)14COKSSQYIKANSKFIGITEAAASIVSPFIPLLGGGDPRVRGLYFPA) (SEQ ID NO:5) for inducing the differentiation of T cells into Th1/Th2 type was analyzed. […] The expression frequency of IFN-γ secreting cells in peripheral blood lymphocytes was measured by the ELI-SPOT method in said supernatant. […] On the 10th, 20th and 30th day after the end of the three immunizations, bloods were removed, serum isolated, and the contents of HBsAg and HBV-DNA in the serum were separately measured by the ELISA method and quantitative PCR method.
The expression frequency of IFN-γ secreting cells in peripheral blood lymphocytes was measured by the ELI-SPOT method.

[4] = system: HBV DNA in HBV transgenic mice; assay: HBV transgenic mice: HBV DNA in serum, quantitative PCR; assay type: in vivo; conditions: 10th, 20th, 30th day after three immunizations, 10-1000 U/mouse
Description: as §1

[5] = system: hepatitis B surface antigen (HBsAg) in HBV transgenic mice; assay: HBV transgenic mice: HBsAg in serum, ELISA; assay type: in vivo; conditions: 10th, 20th, 30th day after three immunizations, 10-1000 U/mouse
Description: as §1

HBV-DNA transgenic mice [6] = assay: HBV transgenic mice: cytokines of spleen lymphocytes, ELISA (Th1/Th2); assay type: in vivo; conditions: 10, 100, 1000 U/mouse s.c., day 30; spleen lymphocytes restimulated with 10 ng/ml for 3 days
Description: as §1
Then supernatants were collected and the secretion levels of cytokines such as TNF-α, IFN-γ, IL-4, etc. in supernatants were measured by ELISA, and the activity of the test drug for inducing the conversion of Th1/Th2 type from T cells in subjects was analyzed.

enzyme-labeled antibody = assay: Potency/specific activity of stock solution or semifinished product, enzyme-linked plate; assay type: binding; conditions: stock solution after reversed phase chromatography; batches 1-3 and x ± Sx
Excerpt: Chromatography column AP5 20/275 POROS 50 R1 was used in the batch production. After peptide-resin was cleaved and preliminarily purified, the collected εPA44 sample was divided into 7 parts for high purification, and the effects and reproducibility for batch purification of εPA44 stock solution were furthered studied. […] The collected elution peak fractions of εPA44 were pooled and mixed homogenously, aliquots were removed for analysis. If the sample met the set standards, it was used as the stock solution and was stored at −20° C. until use. The output, yield and specific activity of the product were calculated based on the measured data.
The semifinished product to be tested was diluted to a concentration within the measurable range of the potency determination. An enzyme-linked plate( ? ) was coated, blocked, bound by enzyme-labeled antibody, and developed. The absorbance at 450 nm (A450 nm) was detected by an enzyme-labeling device, and compared to the reference of the product. The potency of εPA44 in the extract of the sample was determined, and the specific activity of the semifinished product ( ? ) was calculated.
The reference of the product was 10-fold diluted with 50% ethanol, and then was two-fold serially diluted. 100 μl dilutions were separately added to the wells on the 96-well enzyme-linket immunosorbent assay plate, each well was repeated in triplicate. Coating was carried out in refrigerator at 4° C. for 20-24 hours. The stock solution of εPA44 was diluted and coated similarly to the reference. 100 μl of 50% ethanol was added to negative control wells. After the coating was completed, 200 μl 1% calf serum was added to each well, and blocked in refrigerator at 4° C. for 2 hours. The enzyme-linket immunosorbent assay plate was dried in air, 80 μl enzyme-labeled antibody was added to each well and incubated at 37° C. for 40 minutes. The plate was washed with wash solution for 4 times and dried in air, then 50 μl of substrate solution A and 50 μl of substrate solution B were added to each well and developed at 37° C. for 15 minutes under protection from light. Then 50 μl of stop solution was added to each well. A450 nm values were detected on 550 type enzyme-linket immunosorbent assay detector. The median dilution times of the reference and the samples were calculated by program or linear regression method based on the median effect value of the reference of εPA44 (median maximum absorbance), and the potency of the test sample and the specific activity of the product were calculated according to the following formulas.

[7] = system: T2 cells, E6 cells and HepG2.2.15 cells; assay: HBV-specific CTL from human PBMCs, 51Cr release cytotoxicity test; assay type: cell-based
Description: Human PBMCs were divided into groups and cultured in RPMI1640 culture media (containing 10% calf serum, and 100μ/ml penicillin-streptomycin) (10^6/ml, 24-well culture plates) in vitro for one day. After they recovered the original growth state, IL-2(30-IU/ml) and test drug (0.1 μg/ml, 1 μg/ml) were separately added. […] 3 days after the last stimulation, antigen-specific effective CTL cells were obtained. Cytotoxicity was tested by standard ^51Cr release tests and compared. Target cells (T2 cells and HepG2.2.1.5 cells pre-coated with peptide) were grown to a good state. 10 hours before the cells were used, 10 μg/ml test drug was added to the culture, and the cells were incubated. 10^6 Target cells were placed in 1 ml RPMI1640 media (containing 20% calf serum), and 100 μCi ^51Cr (NEN) was added for labelling in water-bath at 37° C. for 2 hours. The labelled target cells were washed with sterilized PBS buffer for 3 times under centrifugation (500 rpm/5 min), and were plated on 96-well V-bottom culture plates in an amount of 10^4 target cells/50 μl/well, each well was treated in triplicate. […] The minimum release value was 30% lower than the maximum release value. The formula for calculating ^51Cr release percentage was: [(CPMsample−CPMminimum release)/(CPMmaximum release−CMPminimum release)]×100%.

[8] = system: peripheral blood mononuclear lymphocytes of HLA-A2+ healthy person; conditions: culture supernatant, 24 h after last stimulation

Row | Substance | Encapsulation rate [1] [%] | degree of size shrinkage of the liposome after lyophilization [2] | further results
1 | 1 (Palmitoyl-KSSQYIKANSKFIGITEAAAFLPSDFFPSVGGGDPRVRGLYFPA) [compound 1] | 93.16 | ++++ | 
2 | 3 (KSSQYIKANSKFIGITEGGGDPRVRGLYFPA; not fully specified (N-terminus); printed as CH3CH2CH═CHCH2CH═CH(CH2)7CO7KSSQYIKANSKFIGITEGGGDPRVRGLYFPA; also: N-terminal acyl on K unclear: CH3(CH2)7CH=CH(CH2)-CO or CH3CH2CH=CHCH2CH=CH(CH2)7CO) [compound 3] | 44.92 | +++ | 
3 | 4 (Palmitoyl-KSSQYIKANSKFIGITEAAAFLPSDFFPSVGGGCTKPTDGNCT; cysteine pairing not given here) [compound 4] | 69.48 | ++ | 
4 | 5 (Palmitoyl-KSSQYIKANSKFIGITEAAASIVSPFIPLLGGGDPRVRGLYFPA) [compound 5] | 97.27 | +++ | 
5 | 6 (QYIKANSKFIGITE; Th cell epitope from tetanus toxoid or variant species thereof) [compound 6] | 79.26 | +++ | 
6 | 7 (PADRE; Th cell epitope from tetanus toxoid or variant species thereof) [compound 7] | 53.75 | − | 
7 | 8 (PLGFFPDH; Hepatitis B virus) [compound 8] | 79.29 | − | 
8 | 9 (MQWNSTALHQALQDP; Hepatitis B virus) [compound 9] | 109.4 | + | 
9 | 10 (SILSKTGDPV; Hepatitis B virus) [compound 10] |  | + | 
10 | CH3(CH2)14COKSSQYIKANSKFIGITEAAAFLPSDFFPSVGGGCTKPTDGNCT (Palmitoyl-KSSQYIKANSKFIGITEAAAFLPSDFFPSVGGGCTKPTDGNCT; cysteine pairing not given here) [SEQ ID NO:4] |  |  | copy numbers of HBV-DNA (HBV-DNA, HBeAg and HBsAg): inhibited in an obvious dose-effect dependence relation; secretion level of HBeAg (HBV-DNA, HBeAg and HBsAg): inhibited in an obvious dose-effect dependence relation; secretion level of HBsAg (HBV-DNA, HBeAg and HBsAg): inhibited in an obvious dose-effect dependence relation
11 | CH3(CH2)14COKSSQYIKANSKFIGITEAAASIVSPFIPLLGGGDPRVRGLYFPA (Palmitoyl-KSSQYIKANSKFIGITEAAASIVSPFIPLLGGGDPRVRGLYFPA) [SEQ ID NO:5] |  |  | expression frequency of IFN-γ secreting cells in peripheral blood lymphocytes (HBV-DNA transgenic mice [3]; 10-1000 U/mouse): increased with the increase of immunogen dose; highest expression frequency of IFN-γ secreting cells (HBV-DNA transgenic mice [3]; IFN-α2b at 15000 U/mouse): 3660 IFN-γ secreting cells/10^6 PBMC; HBV-DNA in the serum (copy number, replication level) [4]: obvious decrease; HBsAg in the serum [5]: obvious decrease; IL-4 secretion (HBV-DNA transgenic mice [6]): did not exhibit an obvious dose-effect dependence relation; secretion of IFN-γ (HBV-DNA transgenic mice [6]): strong secretion of IFN-γ
12 | CH3(CH2)14COKSSYIKANSK FIGITEAAAMQWNSTALHQALQDPGGGDPRVRGLYFPA (Palmitoyl-KSSYIKANSKFIGITEAAAMQWNSTALHQALQDPGGGDPRVRGLYFPA) [SEQ ID NO:72] |  |  | Specific activity (enzyme-labeled antibody): 11689.76±1503.57 U/mg
13 | CH3CH2CH═CHCH2CH═CH(CH2)CH═CH(CH2)7COFLPSDFFPSVAAADPRVRGLYFPA (linolenoyl-FLPSDFFPSVAAADPRVRGLYFPA) [SEQ ID NO:54] |  |  | specific killing of target cells [7]: specifically kill peptide pre-coated T2 cells, E cells and HepG2.2.15 cells; target cell-specific lysis rate ([7]; PBMCs of healthy human): up to 62.8%
14 | CH3CH2CH═CHCH2CH═CH(CH2)CH═CH(CH2)7COKSSPAREGGGWLSLLVPFVSSSDP RVRGLYFPA [SEQ ID NO:2] |  |  | effect of inducing the secretion of IL-4 [8]: not obvious; secretion of IFN-γ [8]: induce the secretion of IFN-γ in a notable dose-effect dependence relation

From patent US8591908B2, “Immunogen for preparation of therapeutic vaccines or drugs for treatment of hepatitis B and the producing method and use thereof” (Institute of Immunology, PLA, priority 2002, dated 2013)
